# Results taken from the DeepSol protein solubility set.
# Assay: soluble on expression in E. coli; label from the status in PepcDB or PDB records
row,Sequence,soluble on expression in E. coli
1,MGSDKIHHHHHHMNNLFDRIASRYVDGAEVFYGWMNMSLNQIKRAKKLGIKTIVECASSHPLYQLKILEEEYQKWNIPFKVGSQKIYLKALKEIKEADFIKIPSDFVQETFIKNGIPEEKLIKIPFGVDLEKFQPKDNYNNEIFRAVFVGTVSIRKGIPYLLKAWSELNLKDAQLYVVGAISPDVKIIIAKYSKLKNIIFTGRVKDIVPILRESNVFVFPSIEEGSALVTYEAMASGLPSIVTYNSGSIVRHGKDGFVIPIRDIKSLKDGIQYFYENPSEVKRMGKNARKHVEKYTWYNYGENLYNELKRLGLL,not soluble
2,MGSDKIHHHHHHMARQFVYFMQGLTKAYPTRKVLDNVHLSFYPDAKIGVLGVNGAGKSTLLKIMAGIDKEYTGEAWVAEGARVGYLEQEPQLDPALTVRENVMLGVAKQKAILDRYNELAMNYSEETADEMTALQDQIESAGLWDLDSKVDQAMDALRCPPDDADVTKLSGGERRRVALCKLLLDQPDLLLLDEPTNHLDAESVSWLESHLRNYPGAILIVTHDRYFLDNVTSWILELDRGRGIPYEGNYSSWLVQKQKRLLQEGREDAAHQKTLEREQEWIASSPKARQAKSKARYQRYEELLAKASEKQTQTAQIIIPVAERLGNNVVDFEHLTKGFGDKLLIDDLTFKLPPGGIVGVIGPNGAGKTTLFRMITGQEKPDQGTITVGETVHLGYVDQSRDSLDAKKTVWEEISGGNELILLGKKEVNSRGYCSAFNFKGGDQQKKVGSLSGGERNRVHLAKMLKSGANVLLLDEPTNDLDVDTLRALEEALEDFAGCAVIISHDRWFLDRIATHILAFEDDSHVEWFEGNFQDYEKDKMRRLGQDAIIPHRAKYKKLTR,not soluble
3,MGSDKIHHHHHHMGLLLKTAASPFACSSGMQNFIANPELESYLRLNRAACGEWTLALQDLLGCSGLACDLSRPKEEVGSLSALGVGGGLVAALSVRQGLELQHCRLESVLLVFPVQGHCELLSDGAAANTLLPFQLILPGQTFSLRVTAESRLLLLMPAEQPQAVQLAAATSEAITLSIQRFLYQAGFLQDHHQGCQAAETVLREVREILAGSSGVTKVTEAVPEPDRRLLKAISKIRTEPDWPFDLQELSSHAGVSERNLYYLMKRQTGMTPYRYYQRCRLIRVRRRLVDCQCAVPHISRYAGDEGFSHFGRFAALYREHFGELPSETVQWRRRLQAQELLAPALS,not soluble
4,MGSDKIHHHHHHMSKPSPRHLWHVQPGSNVITHPLKQSHYLNVELMSLEIVAEYPRPPALVACSDHVIVEALGTRICETHDCLRVLETFHPPTYYLPPKAMRKDLLIRSRRSSFCEWKGIANYWDLVIADKRLEGAIWSYPDPTPTFRALTGWYALYPGRMDHCSVNGETVIPQPGQFYGGWITSQVVGPFKGDPAHPQLI,not soluble
5,MGSDKIHHHHHHADDSYLIDGGKANPYYNGNMMQYLESRPDYFKDLVEVIRLSGMEDVFEDEQITFFAPTDWSIRGSFNYLNRIWYRMGHDSIKSFSQIKPEVWREMLSMYIVKDKYLLKDIPQIDTTAIAAYPGQAFLSYGQQPMNMGVVYYDANNVKYAGARQIIYSYVYDFTIGDMKNAYVATSDIQPTNGVVHVLRLTDHAFGFEPYLFATKAINATIETEPDN,not soluble
6,GPVDNNNNNGLKNSTEPIYAKVNKKKTGQVASPEEPIYTQVAKKVNAKIDRLNQIASGLGGVGQAAGFPLKRHDKVDDLSKVGLSASPEPIYATIDDLGGPFPLKRHDKVDDLSKVGRSRNQELA,soluble
7,MGSDKIHHHHHHMSAPTPLAEASQIPTIPALSPLTAKQSKGNFFSSNPISSFVVDTYKQLHSHRQSLELVNPGTVENLNKEVSRDVFLSQYFFTGLRADLNKAFSMNPAFQTSHTFSIGSQALPKYAFSALFANDNLFAQGNIDNDLSVSGRLNYGWDKKNISKVNLQISDGQPTMCQLEQDYQASDFSVNVKTLNPSFSEKGEFTGVAVASFLQSVTPQLALGLETLYSRTDGSAPGDAGVSYLTRYVSKKQDWIFSGQLQANGALIASLWRKVAQNVEAGIETTLQAGMVPITDPLMGTPIGIQPTVEGSTTIGAKYEYRQSVYRGTLDSNGKVACFLERKVLPTLSVLFCGEIDHFKNDTKIGCGLQFETAGNQELLMLQQGLDADGNPLQALPQL,not soluble
8,MGSDKIHHHHHHMNLPLNVAPVAAAPASPIVELRQYTLNPGQRETLIALFDREFIESQEATGMTIIGQFRDLDRPDMFVWLRGFDGMDTRKEALAAFYDGPVWAAHRDAANATMTDSDDVLLLKPAWPSAGFDLSGLQRPVSAEQENSSNENHLGGIVVIRIHHLRSGAETEFASRFAAEAALIMKAHGVRLLAAFASEHAQNSFPRLPVRASENVFLSIARFDSAEAHASQEAALAAAPAWQSFLRAVQLDLTKPTETLRLSPTSRSLVGARFRMPR,not soluble
9,MIAAEAFAPHAALAQDLIPHAADTGDGSHDLAHIHRVFRNAMRIHAGEGGDGNVLAASVLLHDCVAVEKNSPLRAQASRLAAEKASGILAGLGWQKQDIDAAAHAITTHSFSANIEPQTLEAKILQDADRLDAIGMVGAARCFYIAGRMGSALYDPADPLAKERPLDDRAFAIDHFETKLFKLADGFRTETGRQMAKARHERLKQVLDLFLDEILEHHHHHH,soluble
10,MGSDKIHHHHHHMSNQLENAKNLYLRGIRDGEIKEVHENYMGASYTQHSTGVPDEKEGFAAFFEDFFKRNPKREINIVRAIEDGNFVFVHVHQKLNDGEAEWVTADIFRSDENGRIVEHWDVIDAYPKTIDQTDPIYADFELTDLDKTEDNKKIVRRFLVDVFQNGEIDKFDDYVAANLIQHNQEIAQGGAAYKDYLVDKAVNYDFVFKVMGQGDYVVAYSKVWIAGQDYAHFDIYRLKDGKIVEHWDNKEVMPDKKDLTNLGKF,not soluble
11,SLKNTGYILALCLTASGHVLAHDVWITGKQAENNVTAEIGYGHNFPSKGTIPDRRDFFENPRLYNGKETITLKPASTDYVYKTESASKDNGYVLSTYMKPGYWSRTSSGWKPVSREGRNDVAYCEFVTKYAKSFIPGEQQMPAQLYQSPTGHELEIIPLSDISRFSENVKLKVLYKTSPLAGAIMELDSVSYLTSSRHTHAVEHKHPVHKAELTFVTNEDGIVTVPSLHIGQWLAKVQNKKSFQDKSLCDETVDVATLSFSRN,not soluble
12,MEFDYVICEECGKEFMDSYLMDHFDLPTCDDCRDADDKHKLITKTEAKQEYLLKDCDLEKREPPLKFIVKKNPHHSQWGDMKLYLKLQIVKRSLEVWGSQEALEEAKEVRQ,soluble
13,MGSDKIHHHHHHMTGVQFIDVTDSEAIFDDNQWDAVVLVTHGLDAIAQEELAMLASHGAQVDARVGRSTTLLFAPGLAGGRLIVAPVADGDSDIQDVRGYSDAARQGIKVAFDAGARRPLLIVTPSTQARYAQSMGVAALGCAQALWQSLERREVLGEMDNISQIGLLVDDKAGELLCAIEAGKHLARDLCGTEPERMSAPAFAQYCVDALEGLDLTMSVVEDRDVLERDYPLLSAVGRASFAVSRHQPRVVKLEYKAEGPIERSYFFAGKGVVYDTGGADLKVGGAMAGMSRDKGGAAAVAGLMKTLALLKPKGVRVVAELGLVRNSIGSEAFVTDEIITSHAGVRVRIGNTDAEGRLVLADLLSHLRLKAQDAVAPQLFSVATLTGHVVRAYGGYTAVVENAVARQQQVGDSLQTISEAWGEPIEVSRLRRDDYQKIVDPSGAADVLSSNNAPSSVTARGHQYPAAFLLKASGLEAHGLTSDKPLAYTHVDIAGSATEGDPLYGTPTAAPLVSLCQLIRG,not soluble
14,MKTIYLYKAQIPEGKNKGDNAILITNQTVIDKLEKAAKEDGKSGTQVSTIASKSTTKENQENKIIGYTSTDNLREDNKNIFDIDDLNDEKYDRKIIVSATEEVLEQSNTLQSEEAVVLPAPAKYKASDSTKIAITQEPNLIGIHANEKENEETRKFVNW,soluble
15,MGSDKIHHHHHHMTNRCLYCYEPLVDGEMDYHAKCCRKLFGTPQAPILPYTSSEVRALADEVVRSQTTVTGVQPKLSLDFDQMSNSPKRFTIVGLWGRFILKPQTERYSHLPELEDVSMHLAEIAKIETVPHGLMRFSDGELCYITRRIDRTGQGEKLPMEDMCQLSERLTEYKYKGSHEQVAKLISKYSSVPKLDLVKYWEQVLFSWLIGNADMHLKNYSLYAPEGNEYQLTPAYDLLSTALVIPEDTEELALTLCGKKRKLTRQHFLEAMTASGLDEKVCDNIFARFQHILPEWEACIRQSFLPTEMQRQYIEFILLKFSQI,not soluble
16,KFRTMRQNLQEASDVLDDQIESFTKIIQNHYKLSPNDFADPTIQSQSEIYAVGRIVPDSPTYDKFLNPESLSLETSRMGGVGRRVRLDLSQVNELSFFLGQIVAFKGKNANGDYFTVNSILPLPYPNSPVSTSQELQEFQANLEGSSLKVIVTCGPYFANDNFSLELLQEFIDSINNEVKPHVLIMFGPFIDITHPLIASGKLPNFPQFKTQPKTLDELFLKLFTPILKTISPHIQTVLIPSTKDAISNHAAYPQASLIRKALQLPKRNFKCMANPSSFQINEIYFGCSNVDTFKDLKEVIKGGTTSSRYRLDRVSEHILQQRRYYPIFPGSIRTRIKPKDVSTKKETNDMESKEEKVYEHISGADLDVSYLGLTEFVGGFSPDIMIIPSELQHFARVVQNVVVINPGRFIRATGNRGSYAQITVQCPDLEDGKLTLVEGEEPVYLHNVWKRARVDLIAS,soluble
17,MSKYAILGLVLVGTVASLDFIGRTQSAAIKGRLVCEGKPASGVKVKLMESDNSFGPGFLDSDDKMASGKADSHGEFNLSGSTKEITGIEPYLVVFHDCKDGITPCQRVFRVNVPKSYTNSGSSAKKTYDAGVIELAGKYPGETRSCLN,not soluble
18,MGSDKIHHHHHHMEVIFKRPKALSDREFTYCPGCHHGIIHRLIAEVIDELDIQEKTIMVAPVGCSVFAYEFFDVDGTVAPHGRALAVATGIKRALPDMIVFTYQGDGDLAAIGIAETIHAANRGEKLTTIFVNNAVYGMTGGQMAPTTLLGQKTTTTPYGRTAANDGYPLHVSEALSTIDGVAYLERTTVSTTKDILNTKKAIKKAFLAQIKGLGFGMVEVLSTCPTNWGMSPVEAQNWLLENMVKEFPPKVFVDKVGD,not soluble
19,MQGMREIKRRIRSVKNTRQITKAMKMVAAAKLRRAQETAENARPYADKIKEVISSIAAGTKDFSHPMLEARPVKKTGYMVITSDRGLAGPYNANILRLVSKTIEERHQSKDEYVIFAVGRKGRDFFKKRGYPVVEEVTGISDTPSLTEIQDIAQSAIGMFADETFDKLTIFYNEFVSPIVQRPVEKQLLPLTSEEVLDGPVSAYEYEPDSESVLEVLLPKYAETLIYSALLDAKASEFGARMTAMGNATDNATEMLETLTLQFNRARQAAITQEIAEIVAGANALR,soluble
20,MSNGGKRPPEDDSKLPYYKLVVIGDGGVGKSSLTIQFFQKQFVDYYDPTIEDQYIQHCEIDGNWVIMDVLDTAGQEEFSAMREQYIRGGRGFLLVFSVTERKSFEEAHKLYNQVLRVKDRSEYPVLLVANKVDLINQRVVSEQEGRELAAQLKLMYIETSAKEPPVNVDAAFHELVRIVRSFPSDEGDHEASMASVPRTKKRKDKGKCLIS,soluble
21,MGSDKIHHHHHHMKGLYIGAAGMMNYMQHIQVHSNNVANAQTPGFKFDQLTSEVISRNKVNYQNGPVARQVGTIDYGVRPAATHINLTAGSSYITNRDRDFFMQDTDPTQGSNFFITAKNGEISLSRGGQFHSDQFGFLRTADGANLLSATGEAIQVGQKTSIRSEANGDLYNAETGQYLGRLGTKFVSANQADSLVKDGEGRLHVNGINTMNLPAGQGIIQNGVIETSNVDLGVEMVQLMDNQRMVQASKNVVNMFDKVYDKEATGLIRQ,not soluble
